Reference: patent US20250011363A1, “OPTIMIZED SHORTENED PEPTIDE THAT BINDS TO ACETYLCHOLINE RECEPTOR, AND USE THEREOF” (SKINMED CO., LTD., priority 2021, published 2025)

Target: acetylcholine receptor
Test: SPR, AchR immobilised on chip, peptide at 10 uM

| Binder | Binding affinity (RU) | also measured |
| --- | --- | --- |
| RWQYR [5mer-551] | 59 | – |
| RSYCR [5mer-249] | 52 | – |
| RVQSK [5mer-273] | 82 | – |
| RRVLR [5mer-261] | 59 | – |
| KRYCK [5mer-268] | 54 | – |
| KRYQRK [6mer-2-328] | – | Binding affinity: 131 RU |
| RLYSR [5mer-552] | 63 | – |
| RQQSR [5mer-550] | 83 | – |
| RLIRK [5mer-259] | 71 | – |
| KVYRR [5mer-260] | 57 | – |
| RQFSR [5mer-250] | 76 | – |
| KSRCR [5mer-262] | 59 | – |
| KRISK [5mer-251] | 70 | – |
| RSQQR [5mer-270] | 52 | – |
| RWQCR [5mer-265] | 77 | – |
| KRQYK [5mer-258] | 84 | – |
| RSLYR [5mer-253] | 75 | – |
| RWVSKK [6mer-2-331] | – | Binding affinity: 148 RU |

| Binder | Binding affinity (RU) | also measured |
| --- | --- | --- |
| KQRTR [5mer-255] | 82 | – |
| RLFLR [5mer-269] | 85 | – |
| KQYRK [5mer-252] | 53 | – |
| KGYQR [5mer-272] | 83 | – |
| RGVCK [5mer-256] | 60 | – |
| RVYTKR [6mer-2-329] | – | Binding affinity: 142 RU |
| KVILRR [6mer-2-334] | – | Binding affinity: 146 RU |
| KLLRK [5mer-254] | 87 | – |
| KRFRRK [6mer-2-333] | – | Binding affinity: 139 RU |
| KRLLK [5mer-267] | 66 | – |
| RQFTR [5mer-257] | 85 | – |
| KWYRK [5mer-264] | 50 | – |
| RRQYKK [6mer-2-332] | – | Binding affinity: 145 RU |
| KQLRKK [6mer-2-330] | – | Binding affinity: 139 RU |
| KSYQK [5mer-266] | 66 | – |
| KQVTR [5mer-263] | 80 | – |
| RGRYR [5mer-271] | 68 | – |
| KWITK [5mer-549] | – | SPR binding response: 78 RU |

The next lines start with results.

| Binding affinity (RU) | Binder | also measured |
| --- | --- | --- |
| 60 | RLVLK [5mer-563] | – |
| 74 | RSRYR [5mer-564] | – |
| 59 | KWYQR [5mer-560] | – |
| 78 | KQLYK [5mer-566] | – |
| 81 | KQQLK [5mer-559] | – |
| 65 | RLLSK [5mer-554] | – |
| 72 | KLLSR [5mer-553] | – |
| 64 | KQITR [5mer-568] | – |
| 84 | RSIYR [5mer-573] | – |
| 51 | RRLTK [5mer-571] | – |
| 70 | RVRQR [5mer-562] | – |
| 52 | RVIYK [5mer-556] | – |
| 79 | RQQRK [5mer-569] | – |
| 63 | RRYCK [5mer-567] | – |
| 87 | KQRRK [5mer-557] | – |
| 56 | KLVRR [5mer-570] | – |
| 84 | RWRYK [5mer-558] | – |
| 77 | RLVSK [5mer-565] | – |
| 58 | KLRTK [5mer-572] | – |
| 71 | KVQCK [5mer-555] | – |
| 72 | KWRCK [5mer-561] | – |
